# Reference: patent US9657062B2, “Ghrelin analogues” (Zealand Pharma A/S, priority 2012, dated 2017)
# *1 amine or outer side, *2 acyl side, *3 side chain or, on linkers, in order; H or OH if unused. [ ]: non-standard residue; d: D form. The star is where a group is joined. Achc(cis-1,4) = O=C([C@H]1CC[C@@H](N[*:1])CC1)[*:2]; Octanoyl = CCCCCCCC(=O)*; Octyl = CCCCCCCC*
# B1: H-PS-S(octanoyl)-FLSPEHQRVQYRKESKKPPAKLQPR-NH2 (peptide)
# peptide: H-PSS(Octanoyl)FLSPEHQRVQYRKESKKPPAKLQPR-NH2
# SMILES: CCCCCCCC(=O)OC[C@H](NC(=O)[C@H](CO)NC(=O)[C@@H]1CCCN1)C(=O)N[C@@H](Cc1ccccc1)C(=O)N[C@@H](CC(C)C)C(=O)N[C@@H](CO)C(=O)N1CCC[C@H]1C(=O)N[C@@H](CCC(=O)O)C(=O)N[C@@H](Cc1c[nH]cn1)C(=O)N[C@@H](CCC(N)=O)C(=O)N[C@@H](CCCNC(=N)N)C(=O)N[C@H](C(=O)N[C@@H](CCC(N)=O)C(=O)N[C@@H](Cc1ccc(O)cc1)C(=O)N[C@@H](CCCNC(=N)N)C(=O)N[C@@H](CCCCN)C(=O)N[C@@H](CCC(=O)O)C(=O)N[C@@H](CO)C(=O)N[C@@H](CCCCN)C(=O)N[C@@H](CCCCN)C(=O)N1CCC[C@H]1C(=O)N1CCC[C@H]1C(=O)N[C@@H](C)C(=O)N[C@@H](CCCCN)C(=O)N[C@@H](CC(C)C)C(=O)N[C@@H](CCC(N)=O)C(=O)N1CCC[C@H]1C(=O)N[C@@H](CCCNC(=N)N)C(N)=O)C(C)C
# B2: H-[cACC]-S(O-octyl)-FLSPEHQRVQQRKESKKPPAKLQPR-NH2 (peptide)
# peptide: H-[Achc(cis-1,4)]S(Octyl)FLSPEHQRVQQRKESKKPPAKLQPR-NH2
# SMILES: CCCCCCCCOC[C@H](NC(=O)[C@H]1CC[C@@H](N)CC1)C(=O)N[C@@H](Cc1ccccc1)C(=O)N[C@@H](CC(C)C)C(=O)N[C@@H](CO)C(=O)N1CCC[C@H]1C(=O)N[C@@H](CCC(=O)O)C(=O)N[C@@H](Cc1c[nH]cn1)C(=O)N[C@@H](CCC(N)=O)C(=O)N[C@@H](CCCNC(=N)N)C(=O)N[C@H](C(=O)N[C@@H](CCC(N)=O)C(=O)N[C@@H](CCC(N)=O)C(=O)N[C@@H](CCCNC(=N)N)C(=O)N[C@@H](CCCCN)C(=O)N[C@@H](CCC(=O)O)C(=O)N[C@@H](CO)C(=O)N[C@@H](CCCCN)C(=O)N[C@@H](CCCCN)C(=O)N1CCC[C@H]1C(=O)N1CCC[C@H]1C(=O)N[C@@H](C)C(=O)N[C@@H](CCCCN)C(=O)N[C@@H](CC(C)C)C(=O)N[C@@H](CCC(N)=O)C(=O)N1CCC[C@H]1C(=O)N[C@@H](CCCNC(=N)N)C(N)=O)C(C)C
# B3: H-PS-S(O-octyl)-FLSPEHSR-NH2 (peptide)
# peptide: H-PSS(Octyl)FLSPEHSR-NH2
# SMILES: CCCCCCCCOC[C@H](NC(=O)[C@H](CO)NC(=O)[C@@H]1CCCN1)C(=O)N[C@@H](Cc1ccccc1)C(=O)N[C@@H](CC(C)C)C(=O)N[C@@H](CO)C(=O)N1CCC[C@H]1C(=O)N[C@@H](CCC(=O)O)C(=O)N[C@@H](Cc1c[nH]cn1)C(=O)N[C@@H](CO)C(=O)N[C@@H](CCCNC(=N)N)C(N)=O
# B4: H-PS-S(octanoyl)-FLSPYHQRVQYRKESKKPPAYLQPR-NH2 (peptide)
# peptide: H-PSS(Octanoyl)FLSPYHQRVQYRKESKKPPAYLQPR-NH2
# SMILES: CCCCCCCC(=O)OC[C@H](NC(=O)[C@H](CO)NC(=O)[C@@H]1CCCN1)C(=O)N[C@@H](Cc1ccccc1)C(=O)N[C@@H](CC(C)C)C(=O)N[C@@H](CO)C(=O)N1CCC[C@H]1C(=O)N[C@@H](Cc1ccc(O)cc1)C(=O)N[C@@H](Cc1c[nH]cn1)C(=O)N[C@@H](CCC(N)=O)C(=O)N[C@@H](CCCNC(=N)N)C(=O)N[C@H](C(=O)N[C@@H](CCC(N)=O)C(=O)N[C@@H](Cc1ccc(O)cc1)C(=O)N[C@@H](CCCNC(=N)N)C(=O)N[C@@H](CCCCN)C(=O)N[C@@H](CCC(=O)O)C(=O)N[C@@H](CO)C(=O)N[C@@H](CCCCN)C(=O)N[C@@H](CCCCN)C(=O)N1CCC[C@H]1C(=O)N1CCC[C@H]1C(=O)N[C@@H](C)C(=O)N[C@@H](Cc1ccc(O)cc1)C(=O)N[C@@H](CC(C)C)C(=O)N[C@@H](CCC(N)=O)C(=O)N1CCC[C@H]1C(=O)N[C@@H](CCCNC(=N)N)C(N)=O)C(C)C
# B5: H-PS-S(O-octyl)-FLSPEHQRVQRKESKKPPAKLQPR-NH2 (peptide)
# peptide: H-PSS(Octyl)FLSPEHQRVQRKESKKPPAKLQPR-NH2
# SMILES: CCCCCCCCOC[C@H](NC(=O)[C@H](CO)NC(=O)[C@@H]1CCCN1)C(=O)N[C@@H](Cc1ccccc1)C(=O)N[C@@H](CC(C)C)C(=O)N[C@@H](CO)C(=O)N1CCC[C@H]1C(=O)N[C@@H](CCC(=O)O)C(=O)N[C@@H](Cc1c[nH]cn1)C(=O)N[C@@H](CCC(N)=O)C(=O)N[C@@H](CCCNC(=N)N)C(=O)N[C@H](C(=O)N[C@@H](CCC(N)=O)C(=O)N[C@@H](CCCNC(=N)N)C(=O)N[C@@H](CCCCN)C(=O)N[C@@H](CCC(=O)O)C(=O)N[C@@H](CO)C(=O)N[C@@H](CCCCN)C(=O)N[C@@H](CCCCN)C(=O)N1CCC[C@H]1C(=O)N1CCC[C@H]1C(=O)N[C@@H](C)C(=O)N[C@@H](CCCCN)C(=O)N[C@@H](CC(C)C)C(=O)N[C@@H](CCC(N)=O)C(=O)N1CCC[C@H]1C(=O)N[C@@H](CCCNC(=N)N)C(N)=O)C(C)C
# B6: H-FS-S(O-octanoyl)-FLSPEHQRVQQRKESKKPPAKLQPR-OH (peptide)
# peptide: H-FSS(Octanoyl)FLSPEHQRVQQRKESKKPPAKLQPR-OH
# SMILES: CCCCCCCC(=O)OC[C@H](NC(=O)[C@H](CO)NC(=O)[C@@H](N)Cc1ccccc1)C(=O)N[C@@H](Cc1ccccc1)C(=O)N[C@@H](CC(C)C)C(=O)N[C@@H](CO)C(=O)N1CCC[C@H]1C(=O)N[C@@H](CCC(=O)O)C(=O)N[C@@H](Cc1c[nH]cn1)C(=O)N[C@@H](CCC(N)=O)C(=O)N[C@@H](CCCNC(=N)N)C(=O)N[C@H](C(=O)N[C@@H](CCC(N)=O)C(=O)N[C@@H](CCC(N)=O)C(=O)N[C@@H](CCCNC(=N)N)C(=O)N[C@@H](CCCCN)C(=O)N[C@@H](CCC(=O)O)C(=O)N[C@@H](CO)C(=O)N[C@@H](CCCCN)C(=O)N[C@@H](CCCCN)C(=O)N1CCC[C@H]1C(=O)N1CCC[C@H]1C(=O)N[C@@H](C)C(=O)N[C@@H](CCCCN)C(=O)N[C@@H](CC(C)C)C(=O)N[C@@H](CCC(N)=O)C(=O)N1CCC[C@H]1C(=O)N[C@@H](CCCNC(=N)N)C(=O)O)C(C)C
# B7: H-PS-S(O-octyl)-FLSPEHQRVQQRKES-NH2 (peptide)
# peptide: H-PSS(Octyl)FLSPEHQRVQQRKES-NH2
# SMILES: CCCCCCCCOC[C@H](NC(=O)[C@H](CO)NC(=O)[C@@H]1CCCN1)C(=O)N[C@@H](Cc1ccccc1)C(=O)N[C@@H](CC(C)C)C(=O)N[C@@H](CO)C(=O)N1CCC[C@H]1C(=O)N[C@@H](CCC(=O)O)C(=O)N[C@@H](Cc1c[nH]cn1)C(=O)N[C@@H](CCC(N)=O)C(=O)N[C@@H](CCCNC(=N)N)C(=O)N[C@H](C(=O)N[C@@H](CCC(N)=O)C(=O)N[C@@H](CCC(N)=O)C(=O)N[C@@H](CCCNC(=N)N)C(=O)N[C@@H](CCCCN)C(=O)N[C@@H](CCC(=O)O)C(=O)N[C@@H](CO)C(N)=O)C(C)C
# B8: H-PS-S(O-octyl)-FLSPEHSRVSSR-NH2 (peptide)
# peptide: H-PSS(Octyl)FLSPEHSRVSSR-NH2
# SMILES: CCCCCCCCOC[C@H](NC(=O)[C@H](CO)NC(=O)[C@@H]1CCCN1)C(=O)N[C@@H](Cc1ccccc1)C(=O)N[C@@H](CC(C)C)C(=O)N[C@@H](CO)C(=O)N1CCC[C@H]1C(=O)N[C@@H](CCC(=O)O)C(=O)N[C@@H](Cc1c[nH]cn1)C(=O)N[C@@H](CO)C(=O)N[C@@H](CCCNC(=N)N)C(=O)N[C@H](C(=O)N[C@@H](CO)C(=O)N[C@@H](CO)C(=O)N[C@@H](CCCNC(=N)N)C(N)=O)C(C)C
# B9: H-PS-S(O-octyl)-FLSPEHQRVQQRKESKKPPA-NH2 (peptide)
# peptide: H-PSS(Octyl)FLSPEHQRVQQRKESKKPPA-NH2
# SMILES: CCCCCCCCOC[C@H](NC(=O)[C@H](CO)NC(=O)[C@@H]1CCCN1)C(=O)N[C@@H](Cc1ccccc1)C(=O)N[C@@H](CC(C)C)C(=O)N[C@@H](CO)C(=O)N1CCC[C@H]1C(=O)N[C@@H](CCC(=O)O)C(=O)N[C@@H](Cc1c[nH]cn1)C(=O)N[C@@H](CCC(N)=O)C(=O)N[C@@H](CCCNC(=N)N)C(=O)N[C@H](C(=O)N[C@@H](CCC(N)=O)C(=O)N[C@@H](CCC(N)=O)C(=O)N[C@@H](CCCNC(=N)N)C(=O)N[C@@H](CCCCN)C(=O)N[C@@H](CCC(=O)O)C(=O)N[C@@H](CO)C(=O)N[C@@H](CCCCN)C(=O)N[C@@H](CCCCN)C(=O)N1CCC[C@H]1C(=O)N1CCC[C@H]1C(=O)N[C@@H](C)C(N)=O)C(C)C
# B10: H-PS-S(octanoyl)-FLSPEHQRVQQRKESKKPPAYLQPR-NH2 (peptide)
# peptide: H-PSS(Octanoyl)FLSPEHQRVQQRKESKKPPAYLQPR-NH2
# SMILES: CCCCCCCC(=O)OC[C@H](NC(=O)[C@H](CO)NC(=O)[C@@H]1CCCN1)C(=O)N[C@@H](Cc1ccccc1)C(=O)N[C@@H](CC(C)C)C(=O)N[C@@H](CO)C(=O)N1CCC[C@H]1C(=O)N[C@@H](CCC(=O)O)C(=O)N[C@@H](Cc1c[nH]cn1)C(=O)N[C@@H](CCC(N)=O)C(=O)N[C@@H](CCCNC(=N)N)C(=O)N[C@H](C(=O)N[C@@H](CCC(N)=O)C(=O)N[C@@H](CCC(N)=O)C(=O)N[C@@H](CCCNC(=N)N)C(=O)N[C@@H](CCCCN)C(=O)N[C@@H](CCC(=O)O)C(=O)N[C@@H](CO)C(=O)N[C@@H](CCCCN)C(=O)N[C@@H](CCCCN)C(=O)N1CCC[C@H]1C(=O)N1CCC[C@H]1C(=O)N[C@@H](C)C(=O)N[C@@H](Cc1ccc(O)cc1)C(=O)N[C@@H](CC(C)C)C(=O)N[C@@H](CCC(N)=O)C(=O)N1CCC[C@H]1C(=O)N[C@@H](CCCNC(=N)N)C(N)=O)C(C)C
# Molecular target: human growth hormone secretagogue receptor type 1a (human, UniProt Q92847 1-366)
# Sequence (Q92847 whole entry): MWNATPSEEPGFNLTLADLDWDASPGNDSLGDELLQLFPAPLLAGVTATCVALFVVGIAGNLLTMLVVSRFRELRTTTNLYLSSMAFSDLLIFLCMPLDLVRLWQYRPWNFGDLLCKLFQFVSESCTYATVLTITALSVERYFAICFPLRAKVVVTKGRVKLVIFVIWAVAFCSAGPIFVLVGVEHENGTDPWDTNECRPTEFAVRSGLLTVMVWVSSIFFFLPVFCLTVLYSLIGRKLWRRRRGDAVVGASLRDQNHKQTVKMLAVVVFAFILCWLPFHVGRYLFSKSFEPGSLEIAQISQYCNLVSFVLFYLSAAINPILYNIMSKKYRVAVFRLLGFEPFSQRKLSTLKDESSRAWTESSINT
# Assay: cell-based or functional assay
row,Binder,EC50 (nM); Ca2+ induction in HEK293 cells stably expressing the human ghrelin receptor
1,H-PS[NH‑CH(n-C10H21)‑C(O)]FLSPEHQRVQRKESKKPPAKLQPR-NH2 [H-PS-[NH-CH(n-C10H21)-C(O)]-FLSPEHQRVQRKESKKPPAKLQPR-NH2],0.23 nM
2,B1,0.198 nM
3,B2,0.271 nM
4,B3,0.44 nM
5,B4,0.594 nM
6,H-PSS(Octyl)FLSPEHQRVQQRKESKKPPAKLQPR-NH2 [H-PS-S(O-octyl)-FLSPEHQRVQQRKESKKPPAKLQPR-NH2],0.396 nM
7,B5,0.33 nM
8,B6,0.714 nM
9,H-PS[NH‑CH(n-C10H21)‑C(O)]FLSPEHQRVQQRKESKKPPAKLQPR-NH2 [H-PS-[NH-CH(n-C10H21)-C(O)]-FLSPEHQRVQQRKESKKPPAKLQPR-NH2],0.333 nM
10,B7,0.221 nM
11,B8,0.467 nM
12,B9,0.231 nM
13,B10,0.252 nM
14,XSSFLSPEHQRVQQRKESKKPPAKLQPR (DPro at position 1; Ser(O-octanoyl) at position 3; C-terminal -OH) [H-[DPro]-S-S(O-octanoyl)-FLSPEHQRVQQRKESKKPPAKLQPR-OH],0.786 nM
